Molecular target: T1, kindlin-2 (recombinant, full length, amino acids 1–680) (mouse, UniProt Q8CIB5 1-680)
T1 sequence (looked up): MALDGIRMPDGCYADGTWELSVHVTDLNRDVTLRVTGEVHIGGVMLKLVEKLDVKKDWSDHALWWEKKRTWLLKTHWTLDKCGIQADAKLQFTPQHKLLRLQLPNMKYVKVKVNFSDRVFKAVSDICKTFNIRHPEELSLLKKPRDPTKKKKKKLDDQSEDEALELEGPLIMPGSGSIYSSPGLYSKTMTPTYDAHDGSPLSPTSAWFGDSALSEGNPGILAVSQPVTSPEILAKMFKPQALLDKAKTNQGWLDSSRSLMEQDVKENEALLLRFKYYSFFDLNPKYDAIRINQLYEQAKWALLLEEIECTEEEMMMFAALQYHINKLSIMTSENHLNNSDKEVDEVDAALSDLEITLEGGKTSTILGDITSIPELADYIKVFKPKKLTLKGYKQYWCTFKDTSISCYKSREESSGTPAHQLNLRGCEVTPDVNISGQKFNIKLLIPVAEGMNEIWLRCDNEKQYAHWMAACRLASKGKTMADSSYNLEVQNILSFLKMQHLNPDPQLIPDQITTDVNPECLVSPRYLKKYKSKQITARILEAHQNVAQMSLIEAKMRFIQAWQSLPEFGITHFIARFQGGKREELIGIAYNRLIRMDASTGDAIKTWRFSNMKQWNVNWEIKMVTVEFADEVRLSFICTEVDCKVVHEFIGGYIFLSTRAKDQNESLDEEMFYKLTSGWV
Test: ITC

Kd: 205 ± 59 nM
B1: paxillin (recombinant, full length, amino acids 1–557) (natural protein)
chain: not shown
modifications: Atto520 label (NHS ester) in the ultracentrifugation of Fig. 1 B only
